Source: the supplement of paper PMC9732359
± gives the uncertainty stated by the source.

Test: protein stability index of a GFP-peptide fusion (yeast GPS) (PSI 1-4); higher = more stable; sorted into four equal gates, so the index is relative within each strain
Method in brief: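 Yeast carrying a pooled library were grown to mid-log phase in leucine-free medium. Each library plasmid expresses Cherry and has a tiled 17-residue yeast protein peptide fused downstream of GFP. Cells were sorted into four equal gates by GFP/Cherry ratio, and plasmids from each gate were PCR-amplified, Illumina-sequenced and assigned to strains by barcode. Summing, across gates, the read frequency times the gate number gave each peptide's protein stability index.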

Sequence	protein stability index (doa10∆)	protein stability index (pdr5∆)	protein stability index (san1∆)	protein stability index (ubr1∆)
KTRKTYCKGKTCRKHTQ [RPL42A]	2.45 ± 0.068	1.69 ± 0.068	2.75 ± 0.072	2.06 ± 0.043
DLPISSTDNEAITISNS [SMC1]	2.8 ± 0.079	2.89 ± 0.093	2.7 ± 0.054	2.91 ± 0.059
REMRRKVYAQLLESYKT [RPN7]	2.36 ± 0.081	2.96 ± 0.14	2.32 ± 0.18	2.7 ± 0.09
TQHKVTQYKAGKASLFA [RPL42A]	3.29 ± 0.076	3.04 ± 0.062	2.99 ± 0.059	2.96 ± 0.068
IQSAESIKSQKEEISDQ [SWI3]	2.4 ± 0.26	3.08 ± 0.14	2.58 ± 0.098	2.85 ± 0.11
NSPSKGNSERPSAVAGF [YIL149C/MLP2]	3.2 ± 0.087	3.45 ± 0.1	3.1 ± 0.089	3.16 ± 0.11
VIRDSVTYTEHAKRKTV [HHF1]	1.8 ± 0.081	1.4 ± 0.074	1.44 ± 0.12	2.03 ± 0.051
TDGADENVQIGEDFMEV [SRB4]	2.66 ± 0.12	3.35 ± 0.17		3.1 ± 0.19
HYGLAVDIYTHFTSPIR [DIS3]	1.56 ± 0.042	1.86 ± 0.052	1.61 ± 0.064	1.84 ± 0.039
SNTDETKGENYQLVKTL [FAS2]	2.94 ± 0.081	3.06 ± 0.081	2.81 ± 0.076	3.25 ± 0.084
SKQDASPKPYAVKYGLN [RPL8A]	3.3 ± 0.12	3.2 ± 0.096	3.23 ± 0.095	3.14 ± 0.095
LQLETPAEVGRAIRSEK [BRR2]	2.08 ± 0.11	2.92 ± 0.063	1.66 ± 0.11	
KAEIPPEYAKVGDFLLQ [SIN4]	1.52 ± 0.079	1.93 ± 0.06	1.7 ± 0.093	1.46 ± 0.061
NIVKLCFVHRYKDVSDL [IRR1]	2.68 ± 0.084	2.71 ± 0.059	2.87 ± 0.055	2.89 ± 0.058
LKLLAKSHVLLATPVQF [BRR2]	1.89 ± 0.068	1.4 ± 0.058	1.36 ± 0.11	1.44 ± 0.07
RVNEMVQGMNDDIFIRY [ECM29]	1.7 ± 0.095	1.89 ± 0.17	2.09 ± 0.19	2.39 ± 0.11
VDSQGLPYNWDALEMQW [ARP7]	1.7 ± 0.066	2.35 ± 0.07	2.64 ± 0.1	1.91 ± 0.073
QLYHLEQQKEELTDKLS [SMC1]	2.23 ± 0.16	3.11 ± 0.081	2.78 ± 0.15	3.14 ± 0.11
GTISIQLKNGLLEKYNT [MTR3]	2.28 ± 0.059	2.5 ± 0.073	2.42 ± 0.082	2.43 ± 0.037
FDERIKFANQLHDEYLV [RPN3]	1.65 ± 0.092	2.02 ± 0.12	1.45 ± 0.14	1.36 ± 0.076
ESWANQLTVCGAIIGWT [FAS2]	1.13 ± 0.041	1.3 ± 0.038	1.2 ± 0.088	1.44 ± 0.037
PIPDARNAALRAKAEAA [SCL1]	2.39 ± 0.14	2.69 ± 0.11	2.44 ± 0.13	2.34 ± 0.092
MVVQKYKLSTVVLRLYL [GRR1]	1.66 ± 0.069	1.58 ± 0.049	1.38 ± 0.081	1.64 ± 0.068
VLRLRGALVDRTQPWSI [RPS0A]	2.65 ± 0.086	2.44 ± 0.072	2.52 ± 0.067	3.08 ± 0.031
DLNNAVQKRDEVKEQLG [SMC4]	2.95 ± 0.055	2.99 ± 0.056	3.15 ± 0.046	2.83 ± 0.042
PQTMEHYKQQIAVLIEL [YCS4]	3.01 ± 0.083	3.05 ± 0.12	2.92 ± 0.11	2.52 ± 0.066
